Assay results taken from patent US20230406924A1.

Target: Mouse TREM-1 analyte (in house, his tagged) (mouse) (UniProt Q9JKE2)
Test: SPR (Biacore T200, 25 C), MAB1187 captured on anti rat Fc, his tagged mouse TREM-1 as analyte, 1:1 model

UniProt Q9JKE2, sequence (Q9JKE2 21-202 limits assumed): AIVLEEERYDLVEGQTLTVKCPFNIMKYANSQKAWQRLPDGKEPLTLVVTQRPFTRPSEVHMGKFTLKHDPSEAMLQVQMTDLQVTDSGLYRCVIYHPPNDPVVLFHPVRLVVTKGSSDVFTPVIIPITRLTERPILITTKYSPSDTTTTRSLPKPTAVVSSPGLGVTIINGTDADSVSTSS

MAB1187, anti-mouse TREM1 monoclonal antibody (R&D Systems, clone 174031)
Kd: 26 nM | koff: 0.0051 s⁻¹ | kon: 200000 M⁻¹ s⁻¹
